The target in experiment [1] is T1, recombinant human PD-1 ECD-6His protein (Bio-Techne, item BP164049-1 mg) (human, UniProt Q15116 25-170).
T1 construct: extracellular domain; Bought protein; also called human PD-1-ED-6His; recombinant human PD-1 protein; not shown: hexahistidine tag
As to the kind of experiment: SPR, mAb captured on protein A chip, PD-1 protein injected.

The target of the next experiment is T2, canine PD-1 ECD-6His (canine).
T2 construct: also called recombinant canine PD-1-ECD-6His protein; not shown: hexahistidine tag
T2 chain: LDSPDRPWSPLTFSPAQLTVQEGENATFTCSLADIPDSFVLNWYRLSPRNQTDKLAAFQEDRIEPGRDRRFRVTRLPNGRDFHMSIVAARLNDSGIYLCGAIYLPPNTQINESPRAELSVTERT
The experiment in a line: SPR multi-cycle kinetics, mAb captured on protein A chip, monomeric PD-1 ECD-6His analyte.

T1 sequence (Q15116 25-170): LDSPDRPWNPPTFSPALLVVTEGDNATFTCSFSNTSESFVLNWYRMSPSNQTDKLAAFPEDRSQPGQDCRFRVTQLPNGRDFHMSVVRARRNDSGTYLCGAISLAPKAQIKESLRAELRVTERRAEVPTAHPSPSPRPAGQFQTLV
Protocol for canine PD-1 ECD-6His: SPR-based monomeric affinity assays were conducted as multi-cycle kinetic experiments. Around 100 RU of purified monoclonal antibody was captured on Fc2 of a series S protein A chip (Cytiva). […] At the end of each cycle, the chip surface was regenerated with a 120 s pulse of 10 mM Glycine pH 1.9 at 30 μL/min. The data were analysed using Biacore Insight package (Cytiva) by fitting to a global 1:1 binding model with kinetic analysis.

B1: PMX126 (antibody, V domains shown)
VH: EVQLVESGGDLVKPAGSLRLSCLASGFTFSSYSMSWVRQAPEKGLQSVAGINSDGDRTYYTDAVKGRFTISRDNAKSTVYLQMNSLRAEDTAMYYCVRGFSSFNAFGYWGQGTLVTVSS
VL: DIVMTQTPLSLSVSPGETASISCKASQSLLHSDGNTYLSWFRQKPGQSPHRLIYAVSHRHPGVPDRFSGSGSGTDFTLRISRVEADDAGLYYCGQVIQDPWTFGAGTKVELK
notes: Alexa Fluor 647-labelled in some assays
With B1, the binding result in experiment [1] is recorded as “no binding (tested: 900 nM)”.

B2: PMX152 (antibody, V domains shown)
VH: EVQLVESGGDLVKPGGSLRLSCVASGFTFSRYYMNWVRQAPGKGPQWVAYINNAGSDRNYVDAVKGRFTISRDNAKNTLYLQMNSLRAEDTAVYYCASEIRGVVVVGHLDYWGQGTLVTVSS
VL: SYVLTQLPSKSVTLNQPAHITCGGDNIGSKSVHWYQQKLGQAPVLIIYYDSIRPTGIPERFSGATSGNTATLTISGALAEDEADYYCQVWDSSAKAWVFGEGTQLTVL
notes: also called PM152
Regarding B2, the binding result in the experiment with canine PD-1 ECD-6His is on record as “binds”.

B3: PMX127 (antibody, V domains shown)
VH: EVQLVESGGDLVKPGGSLRLSCVASGFSFSRYHMSWVRQAPGKGLQWVAYIVSGGISTSYADAVKGRFTISRDNAKNTLFLQMNSLRAEDTAVYYCATYGSYFFDTWGQGTLVTVSS
VL: DIVMTQTPLSLSVSPGETASIFCKASQSLLHSDGKSYLNWFRQKPGQSPQRLIYRVSNRDPGVPDRFSGSGSGTDFTLRISRVEADDTGLYYCGQVIQDPTFGAGTKVELK
notes: Alexa Fluor 647-labelled in some assays; also called PM127
In the case of B3, the binding result in experiment [1] is recorded as “no binding (tested: 900 nM)”.

Values taken from patent publication US20240254231A1 (PETMEDIX, published 2024).
